Data on 94 variants can be found in the supplement of paper PMC10567573.

Sequences and labels used below:
B1: UBE2R2 (parent)
chain: DPQSGELPSERWNPTQNVRTILLS
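Note: lentivirally expressed fusions sorted by FACS into six bins by GFP to DsRed ratio, PSI derived from sequencing read proportions per bin multiplied by bin number.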

In this data set the parent is B1. Put plainly: protein stability index of a GFP-peptide fusion (GPS, HEK-293T) (PSI 1-6); higher = more stable. Conditions: c terminus: a fixed tail appended.
As to DPQSGELPSERWNPIQNVRTILLS, the protein stability index is 2.78.
For DPQSGELPSERWNPFQNVRTILLS, the protein stability index amounted to 2.51.
As to DPQSGELPSERWNPEQNVRTILLS, the protein stability index was determined as 3.6.
Regarding DPQSGELPSERWNPAQNVRTILLS, the protein stability index amounted to 3.15.
For the variant DPQSGELPSERWNPCQNVRTILLS, the protein stability index was determined as 3.26.
As for DPQSGELPSERWNPGQNVRTILLS, the figure is 3.53; as for DPQSGELPSERWNPKQNVRTILLS, 3.5; as for DPQSGELPSERWNPHQNVRTILLS, 3.79.
For DPQSGELPSERWNPMQNVRTILLS, the protein stability index amounted to 2.86.
Take DPQSGELPSERWNPNQNVRTILLS: the protein stability index was found to be 3.89.
As for DPQSGELPSERWNPLQNVRTILLS, the figure is 2.86; as for DPQSGELPSERWNPYQNVRTILLS, 3.22; as for DPQSGELPSERWNPQQNVRTILLS, 3.63.
Regarding DPQSGELPSERWNPSQNVRTILLS, the protein stability index was 3.39.
As to DPQSGELPSERWNPVQNVRTILLS, the protein stability index was determined as 3.48.
For DPQSGELPSERWNPPQNVRTILLS, the protein stability index is 3.14.
As for DPQSGELPSERWNPDQNVRTILLS, the figure is 4.15; as for DPQSGELPSERWNPRQNVRTILLS, 3.76.
As to DPQSGELPSERWNPWQNVRTILLS, the protein stability index turned out to be 2.13.
For the variant DPQSGELPSERWNWTQNVRTILLS, the protein stability index worked out at 3.12.
The same measure for DPQSGELPSERWNMTQNVRTILLS: 3.09; for DPQSGELPSERWNHTQNVRTILLS: 2.98.
As for DPQSGELPSERWNVTQNVRTILLS, the figure is 3.48.
As for DPQSGELPSERWNLTQNVRTILLS, the protein stability index is 2.79.
For DPQSGELPSERWNRTQNVRTILLS, the protein stability index came to 4.28.
Regarding DPQSGELPSERWNKTQNVRTILLS, the protein stability index was 3.56.
As for DPQSGELPSERWNITQNVRTILLS, the figure is 2.8.
As for DPQSGELPSERWNDTQNVRTILLS, the figure is 4.12; as for DPQSGELPSERWNTTQNVRTILLS, 4.13.
Regarding DPQSGELPSERWNCTQNVRTILLS, the protein stability index worked out at 3.35.
Take DPQSGELPSERWNSTQNVRTILLS: the protein stability index stood at 3.69.
As for DPQSGELPSERWNQTQNVRTILLS, the figure is 3.93; as for DPQSGELPSERWNYTQNVRTILLS, 3.01.
As for DPQSGELPSERWNATQNVRTILLS, the figure is 3.34; as for DPQSGELPSERWNGTQNVRTILLS, 3.71; as for DPQSGELPSERWNETQNVRTILLS, 4.08.
The same measure for DPQSGELPSERWNNTQNVRTILLS: 3.17; for DPQSGELPSERWNFTQNVRTILLS: 2.32; for DPQSGELPSERWNPTQNVRSILLS: 4.1.
In the case of DPQSGELPSERWNPTQNVRHILLS, the protein stability index turned out to be 3.6.
The same measure for DPQSGELPSERWNPTQNVRPILLS: 3.79.
The same measure for DPQSGELPSERWNPTQNVRWILLS: 2.93; for DPQSGELPSERWNPTQNVRNILLS: 3.71; for DPQSGELPSERWNPTQNVRYILLS: 2.46.
The same measure for DPQSGELPSERWNPTQNVRMILLS: 3.67; for DPQSGELPSERWNPTQNVRCILLS: 2.92; for DPQSGELPSERWNPTQNVRVILLS: 2.05.
In the case of DPQSGELPSERWNPTQNVRKILLS, the protein stability index turned out to be 4.43.
For the variant DPQSGELPSERWNPTQNVRQILLS, the protein stability index is 3.76.
Regarding DPQSGELPSERWNPTQNVRAILLS, the protein stability index worked out at 3.64.
The same measure for DPQSGELPSERWNPTQNVRGILLS: 2.9.
DPQSGELPSERWNPTQNVRLILLS: the protein stability index was 2.79.
As for DPQSGELPSERWNPTQNVREILLS, the protein stability index turned out to be 3.19.
Turning to DPQSGELPSERWNPTQNVRDILLS, the protein stability index stood at 3.61.
The same measure for DPQSGELPSERWNPTQNVRRILLS: 3.32; for DPQSGELPSERWNPTQNVRFILLS: 1.57; for DPQSGELPSERWNPTQNVRIILLS: 1.65.
As for DPQSGELPSERWNPTQNVATILLS, the figure is 3.61.
As for DPQSGELPSERWNPTQNVMTILLS, the figure is 2.86.
As for DPQSGELPSERWNPTQNVSTILLS, the protein stability index came out at 4.08.
Take DPQSGELPSERWNPTQNVNTILLS: the protein stability index came to 4.5.
The same measure for DPQSGELPSERWNPTQNVFTILLS: 2.6.
The same measure for DPQSGELPSERWNPTQNVGTILLS: 3.7.
For DPQSGELPSERWNPTQNVPTILLS, the protein stability index turned out to be 3.87.
The same measure for DPQSGELPSERWNPTQNVDTILLS: 4.43; for DPQSGELPSERWNPTQNVTTILLS: 3.21.
As for DPQSGELPSERWNPTQNVWTILLS, the figure is 1.85; as for DPQSGELPSERWNPTQNVYTILLS, 2.11; as for DPQSGELPSERWNPTQNVCTILLS, 3.05.
With DPQSGELPSERWNPTQNVQTILLS, the protein stability index is 3.81.
For DPQSGELPSERWNPTQNVITILLS, the protein stability index was determined as 2.41.
As for DPQSGELPSERWNPTQNVVTILLS, the figure is 2.28; as for DPQSGELPSERWNPTQNVLTILLS, 2.61.
As for DPQSGELPSERWNPTQNVETILLS, the figure is 4.76; as for DPQSGELPSERWNPTQNVHTILLS, 3.43; as for DPQSGELPSERWNPTQNVKTILLS, 3.95.
As for DPQSGELPSERWNPTQHVRTILLS, the figure is 3.04; as for DPQSGELPSERWNPTQRVRTILLS, 3.4; as for DPQSGELPSERWNPTQMVRTILLS, 2.39.
For DPQSGELPSERWNPTQSVRTILLS, the protein stability index was determined as 2.9.
As for DPQSGELPSERWNPTQIVRTILLS, the figure is 2.24; as for DPQSGELPSERWNPTQEVRTILLS, 3.56.
Consider DPQSGELPSERWNPTQGVRTILLS, for which the protein stability index was found to be 4.3.
The same measure for DPQSGELPSERWNPTQQVRTILLS: 3.6; for DPQSGELPSERWNPTQWVRTILLS: 2.59; for DPQSGELPSERWNPTQAVRTILLS: 3.06.
In the case of DPQSGELPSERWNPTQLVRTILLS, the protein stability index amounted to 2.54.
The same measure for DPQSGELPSERWNPTQFVRTILLS: 2.75.
As for DPQSGELPSERWNPTQKVRTILLS, the figure is 3.23; as for DPQSGELPSERWNPTQPVRTILLS, 4.18; as for DPQSGELPSERWNPTQVVRTILLS, 2.4.
For DPQSGELPSERWNPTQTVRTILLS, the protein stability index is 3.51.
The same measure for DPQSGELPSERWNPTQDVRTILLS: 3.99.
As to DPQSGELPSERWNPTQYVRTILLS, the protein stability index turned out to be 2.38.
